# Assay results from patent US20190071490A1, “Preventing Post-Ictal Headaches” (Beth Israel Deaconess Medical Center, Inc., priority 2017, published 2019).
# B1: G1: humanized monoclonal anti-CGRP antagonist antibody; heavy chain SEQ ID NO:11, light chain SEQ ID NO:12 (antibody)
# heavy: EVQLVESGGGLVQPGGSLRLSCAASGFTFSNYWISWVRQAPGKGLEWVAEIRSESDASATHYAEAVKGRFTISRDNAKNSLYLQMNSLRAEDTAVYYCLAYFDYGLAIQNYWGQGTLVTVSSASTKGPSVFPLAPCSRSTSESTAALGCLVKDYFPEPVTVSWNSGALTSGVHTFPAVLQSSGLYSLSSVVTVPSSNFGTQTYTCNVDHKPSNTKVDKTVERKCCVECPPCPAPPVAGPSVFLFPPKPKDTLMISRTPEVTCVVVDVSHEDPEVQFNWYVDGVEVHNAKTKPREEQFNSTFRVVSVLTVVHQDWLNGKEYKCKVSNKGLPSSIEKTISKTKGQPREPQVYTLPPSREEMTKNQVSLTCLVKGFYPSDIAVEWESNGQPENNYKTTPPMLDSDGSFFLYSKLTVDKSRWQQGNVFSCSVMHEALHNHYTQKSLSLSPGK
# light: EIVLTQSPATLSLSPGERATLSCKASKRVTTYVSWYQQKPGQAPRLLIYGASNRYLGIPARFSGSGSGTDFTLTISSLEPEDFAVYYCSQSYNYPYTFGQGTKLEIKRTVAAPSVFIFPPSDEQLKSGTASVVCLLNNFYPREAKVQWKVDNALQSGNSQESVTEQDSKDSTYSLSSTLTLSKADYEKHKVYACEVTHQGLSSPVTKSFNRGEC
# Tested on: central trigeminovascular neurons (medullary dorsal horn)
# Assay: Seizure (picrotoxin)-induced activation of trigeminovascular neurons, single-unit recording
# Type: in vivo
# Settings: rat
# From the text: Cortical electrodes were used to trace the magnitude, extent and progression of epileptiform seizures.
# Single-unit recordings were obtained from neurons in the trigeminal ganglion and dorsal horn as described in previous studies (Burstein et al. (1998) J. Neurophysiol. 79: 964-82; Strassman and Levy (2006) J. Neurophysiol. 95: 1298-306; Strassman et al. (1996) Nature 384: 560-4; Zhang et al. (2010) J. Neurosci. 30: 8807-14; and Zhang et al. (2011) Ann. Neurol. 69: 855-65). Experiments were done in adult Sprague-Dawley rats (250 g to 350 g). Animals were anesthetized with urethane (1.2-1.5 g/kg), artificially ventilated with oxygen, and paralyzed. Body temperature was controlled, and end-tidal CO2 and oxygen saturation was monitored. For ganglion recordings, four separate craniotomies were made: over the contralateral cortex, to advance the microelectrode; over the ipsilateral parietal cortex, and the ipsilateral occipital cortex, for application of the picrotoxin and recording of electrocorticogram activity; and over the ipsilateral transverse sinus, for electrical and mechanical stimulation of dural afferents, and lidocaine application. For dorsal horn recording, the same craniotomies were made over the ipsilateral cortex and the ipsilateral transverse sinus, but no contralateral craniotomy was made. Instead, a laminectomy was made to expose the upper cervical spinal cord (C1-2) for microelectrode recording. In both the trigeminal ganglion and the dorsal horn recording experiments, the search stimulus for finding dura-sensitive neurons is single-shock electrical stimulation applied to the dura covering the transverse sinus.
# Seizure was induced by application of picrotoxin to the surface of the cerebral cortex (10 μl, applied on a small piece of gelfoam, at a concentration of either 5 mM or 100 mM, for focal or generalized seizure, respectively). For verification of seizure induction, cortical activity was recorded with a glass micropipette (0.9% saline, ˜1 megohm, 7 μm tip) placed just below the surface of the cerebral cortex, at the parietal and the occipital site. […]
molecule,measurement,setting,value
B1,neurons activated by the seizure (number/total),"30 mg/kg i.v. four hours before induction of seizure, medullary dorsal horn, untreated 28/30",2/13
same,neurons activated by the seizure (percent),"30 mg/kg i.v. four hours before induction of seizure, medullary dorsal horn, untreated 93%",15%
same,activation of central trigeminovascular neuron by seizure (FIG. 9),30 mg/kg intravenously four hours before induction of seizure,prevented the activation of a central trigeminovascular neuron but not the occurrence of a seizure
